Source: the nanobody polyreactivity screen of Harvey et al. (2022)

Assay: yeast display, Sf9 membrane polyspecificity reagent, FACS + sequencing; frameworks hold sequencing errors
Method in brief: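 Synthetic nanobody libraries on Saccharomyces cerevisiae BJ5465 were galactose-induced for 36–48 hours, stained 1 hour at 4 °C with 10% biotinylated, detergent-solubilized Sf9 membrane reagent and enriched on streptavidin microbeads. FACS then separated cells into low and high (top ~1%) gates by anti-HA (expression) and streptavidin (reagent binding) fluorescence. Genes were colony-PCR amplified, MiSeq 2 × 250 sequenced and CDR-length filtered. A clone's polyreactivity label is that of its gate of origin.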

QLQLVESGGGLVQAGGSLRLSCAASGSTFDTYAMGWYRHAPGKERELVAGINTDGDNTYYADSVKGRFTISRDNAKNTVYVQMNSLKPEDTAVYYCAARFYRASGRTPSYRGHHYDYWGQATQVTVSS
polyreactivity (PSR sort gate): low polyreactivity

QVQLVESGGGLVQAGGSLRLSCAASGRILYGYVMGWYRQAPGKERELVAAISWSGARTYYADSVKGRFTISRDNAKNTVYLQMNSLKPEDTAVYYCAARVPSWKYDYWGQGTQVTVSS
polyreactivity (PSR sort gate): high polyreactivity

QVQLVESGGGLVQAGGSLRLSCAASGSIFAWYAMGWYRQAPGKERELVADITQSGGSTYYADSVKGRFTISRDNAKNTVYLQMNSLKPEDTAVYYCVDYWYNYLQSGWEDDYWGQGTQVTVSS
polyreactivity (PSR sort gate): low polyreactivity

QVQLEESGGGLVQAGGSLRLIWAASGFIFRTYTMGWYRQAPGKERELVATIDSSGGSTYYADSVKGRFTISRDNAKNTVYLQMNSLKPEDTAVYYCNADLRELSPWYWYSGEMDYWGQGTQVTVSS
polyreactivity (PSR sort gate): low polyreactivity

QVQLVESGGGLVQAGGSLRLSCAASGSTFIRNAMGWYRQAPGKERELVAAISSSGGRTYYADSVKGRFTISRDNAKNTVYLQMNSLKPEDTAVYYCAARAVGAYYSSYSHGAGYYYWGQGTQLTVSS
polyreactivity (PSR sort gate): high polyreactivity

QVQLVESGGGLVQAGGSLRLSCAASGYIFGVYAMGWYRQAPGKERELVAVITVTGGSTYYADSVKGRFTISRDNAKNTVYLQMNSLKPEDTAVYYCNTLEYLEYDYWGQGTQVTVSS
polyreactivity (PSR sort gate): high polyreactivity

QVQLVESGGGLVQAGGSLRLSCAASGSTLQVNAMGWYRQAPGNERELVATISFSGGSTYYADSVKGRFTISRDNAKYTVYLQMNSLKPEDTAVYYCNADSFVSWYNQFWYQATYDYWGQGTEVTVSS
polyreactivity (PSR sort gate): low polyreactivity

QVQLVESGGGLVQAGGSLRLSCAASGSTFTTYAMGWYRQSPGKERELVAVITDSGGTYYADSVKGRFTISRDNAKNTVYLQMNSLKPEDTAVYYCNRVFPPTDYEFDSWGQGTQVTVSS
polyreactivity (PSR sort gate): low polyreactivity

QVQLVESGGGLVQAGGSLRLSCAVSGGLFSFYAMGWYRQAPGKERELVAAISSGGTTYYADSVKGRFTISRDNAKNTVYLQMNSLKPEDTAVYYCALLVGHNYWGQGTQVTVSS
polyreactivity (PSR sort gate): low polyreactivity

QVQLVESGGGLVQAGGSIRLSCAASGRIFYPYAMGWYRPAPGKDRELVAAIRRSGVDTYYADSVKGRFTISRDNAKQTVYLQMNSLKPEDTAVYYCAADPYWFFAHYDSWGQGTQVTVSS
polyreactivity (PSR sort gate): low polyreactivity

QVQLVESGGGLVQAGGSLRLSCAASGFTFYQNAMGWYRQAPGKEREFVAAISRRGGSTYYADSVKGRFTSSRDNAKNTVYLQMNSLKPEDTAVYYCAADYKRKSDGDYWGQGTQVTVSS
polyreactivity (PSR sort gate): high polyreactivity

QVQLVESGGGLVQAGGSLRLSCAASGRIFKRYTMGWYRQAPGKERELVAGITFSGGSTYYADSVKGRFTISRDNAKNTVYLQMHSLKPEDTAVYDCNARVPPQGWGPWKAFDYWGQGTQVTVSS
polyreactivity (PSR sort gate): low polyreactivity

QVQLVETGGGLVQAGGSLRVSCAASGSIFVGYPMGWYRQAPGKERELVAAISSNGGSTYYADSVKGRFTISRDNAKNTVYVQMNSLKPEDTAVYYCAAGVRRVYASGHGAYGYWGQGTQVTVSS
polyreactivity (PSR sort gate): low polyreactivity

QVQLVESGGGLVQAGGSLRLSCAASGFIFPNNAMGWYRQAPGKERELVARISYGGGDTHYADSVKGRFTISRDNAKNTVYLERNSLKPEDTAVYYCAVKDGQDDYWGQGTQVTVSS
polyreactivity (PSR sort gate): low polyreactivity

QVQLVESGGGLVQAGGSLRLSCAASGRTFRSYAMGWYRQAPGKERELVAAISRRGGTTYYADSVKGRFTISRDNAKNTVYLQMNSLKPEDTAVYYCAATSYTYVLSPYRGDYWGQGTQVTVSS
polyreactivity (PSR sort gate): high polyreactivity

QDQHVESGGGLVQAGGSLRLSCDASGRTFTRYAMGWYRQAPGKERELVAAISRGGSTYYADSVKRRFTISRDNAKNTVYLQMNSLKPEDTAVYYCAARYGTYTAGNYWGQGTQVTVSS
polyreactivity (PSR sort gate): high polyreactivity

QVQLVESGRGLVQAGGSLRISCAASGRIFKNYAMGWYRQAPGKERELVADITWSDSDTSYADSVKGRFTITRDNAKNTVYLQMNCLKPEDTAVYYCAAETFDYADYIANGSAEYDYWGQGSQVTVSS
polyreactivity (PSR sort gate): high polyreactivity

QVHLVESGGGLVQAGGSLRLTCAASGSTFASNVMGWYRQAPGKERELVAAISRRGTRTNYADSVKGRFTISLDNAKNTVYLQMKSLKPEDTAVYYCNTASGTNVVYEFGYWGQGTQVTVSS
polyreactivity (PSR sort gate): high polyreactivity

QVQLVESGGGLVQAGGSLRLSCAASGSTSNVYAMGWYRQAPGKERELVAAIRWSGGNTYYADSVKGRFTISRDNAKNTFYLQMNSLKPEDTAVYYCAAFYRYVSTIFDYWGQGTQVTVSS
polyreactivity (PSR sort gate): high polyreactivity

QVQLQESGGGQVQAGGSLRLSCEASGTIFLYAFMGWYRQAPGKERELVAAIDVGTTTNYADSVKGRFTISRDNAKNTVYLQMNSLKPEDTAVYYCAANLGYLDDLGYWGQGTQVTVSS
polyreactivity (PSR sort gate): low polyreactivity

QVQLVESGGGLVQARGSLRLSCAASAFIIPVYTIGWYRQAPGKERELVAAITQIGGSTHYADSVKGRFTISRANAKNTVYLQMNSLKPEDTAVYYCAVDYDSYWYGTYVNEYDYWGLGTQVTVSS
polyreactivity (PSR sort gate): low polyreactivity

QVQLVESGGGLVQAGGSLRLSCAASGLTFSWYAMGWYRPAPGKERELVAAISSGGSTYYADSVKGRFTISRDNAKNTVYLQMNSLKPEDTAVYYCNAESYYYGFFWSGFRYGYWGQGTQVTVSS
polyreactivity (PSR sort gate): high polyreactivity

QVQLVESGGGLVQAGGSLRLRCAASGRIFRYYAMGWYRQAPGKARELVARITSSGSTYYADSVKGRFTISRDNAKNTVYLQMNSLKPEDTAVYYCAADWYRGGIVDSWGQGTQVTVSS
polyreactivity (PSR sort gate): high polyreactivity

QVQLVESGGGLVQAGGSLRLSCAASGSTFYHNVRGWYRPAPGKERELVASIDTGDSTNYADSVKGRFTISRDNAKNTVYFQMNSLTPEDTAVYYCNADSYAALNKRGYDYWGQGTQVTVSS
polyreactivity (PSR sort gate): low polyreactivity

QVQLVVSGGGLVQAGGSLRLSCAASGRTFPGNAMGGYRQAPGKERELVASINGRTTRTYYADSVKGRFTISRDNAKNTVYLQMNSLKPEDTAVYYCAADPPGYVYGKRYYWGQGTQVTVSS
polyreactivity (PSR sort gate): high polyreactivity

QVQLVESGGGLVQAGGSLRLSCAASGITLYEYAMGWYRQAPGKERELVAAISTSGGRTRYADSVKGRFTISRDNAKNTVYLQMNSLKPEDTAVYYCAASGFVQISNPRRDYWGQGTQVTVSS
polyreactivity (PSR sort gate): high polyreactivity

QVQLVESGGGIVQAGGSLRLSCASSGSIFYWYAMGWYRQAPGKERELVAAISRSGGSTYYADSVKGRFTISRDNAKNTVYLQMNSLKPEDTAVYYCATELSYRHGYWGQGTQVTVSS
polyreactivity (PSR sort gate): high polyreactivity

QVQLVESGGGLVQAGGSLRLSCAASGRIFRYYAMGWYRQAPGKERELVAAISSGGRTYYADSVKGRFPISRDNEKNTVYLQMNSLKPEDTAVYYCNTYTYAGYNYWGQGTQVTVSS
polyreactivity (PSR sort gate): high polyreactivity

QVQLVESGGGLVQAGGSLRLSCSASGITFKLNSMGWYRQAPGKERELVAAITSTGGSTYYADSVKGRFTISRDNAKNTVYLQMNSLKPEDTAVYYCATDILIDGFYSDYWGQGTQVTVSS
polyreactivity (PSR sort gate): high polyreactivity

QVQLVESGGGLDQAGGSLRLSCAASGFILGDYAMGWYRQAPGKERELVAAITSSGGSTYYADSVKGRFTISRDNAKNTVYFQMNSLKPEDTAVYYCNTVYVYGPEYDYWGQGTQVTVSS
polyreactivity (PSR sort gate): high polyreactivity

QVQLVESGGGLVQAGGSLRLSCAASGSILWLYVMGWYRQAPGKERELVATITSSGGSTYYADSVKGRFTISRDNAKNSVYLQMNSLKPEDTAVYYCAADYSRDEYDYWGQGTQVTVSS
polyreactivity (PSR sort gate): low polyreactivity
